B1: F-box only protein 7 (Homo sapiens), Q9Y3I1 (parent)
chain: MRLRVRLLKRTWPLEVPETEPTLGHLRSHLRQSLLCTWGYSSNTRFTITLNYKDPLTGDEETLASYGIVSGDLICLILQDDIPAPNIPSSTDSEHSSLQNNEQPSLATSSNQTSMQDEQPSDSFQGQAAQSGVWNDDSMLGPSQNFEAESIQDNAHMAEGTGFYPSEPMLCSESVEGQVPHSLETLYQSADCSDANDALIVLIHLLMLESGYIPQGTEAKALSMPEKWKLSGVYKLQYMHPLCEGSSATLTCVPLGNLIVVNATLKINNEIRSVKRLQLLPESFICKEKLGENVANIYKDLQKLSRLFKDQLVYPLLAFTRQALNLPDVFGLVVLPLELKLRIFRLLDVRSVLSLSAVCRDLFTASNDPLLWRFLYLRDFRDNTVRVQDTDWKELYRKRHIQRKESPKGRFVMLLPSSTHTIPFYPNPLHPRPFPSSRLPPGIIGGEYDQRPTLPYVGDPISSLIPGPGETPSQFPPLRPRFDPVGPLPGPNPILPGRGGPNDRFPFRPSRGRPTDGRLSFM

Variants of: B1
Settings: with prkn_human PRKN

| effect of a mutation on the interaction | Variant |
| --- | --- |
| disrupting interaction | MRLRVRLLKRTWPLEVPETEPMLGHLRSHLRQSLLCTWGYSSNTRFTITLNYKDPLTGDEETLASYGIVSGDLICLILQDDIPAPNIPSSTDSEHSSLQNNEQPSLATSSNQTSMQDEQPSDSFQGQAAQSGVWNDDSMLGPSQNFEAESIQDNAHMAEGTGFYPSEPMLCSESVEGQVPHSLETLYQSADCSDANDALIVLIHLLMLESGYIPQGTEAKALSMPEKWKLSGVYKLQYMHPLCEGSSATLTCVPLGNLIVVNATLKINNEIRSVKRLQLLPESFICKEKLGENVANIYKDLQKLSRLFKDQLVYPLLAFTRQALNLPDVFGLVVLPLELKLRIFRLLDVRSVLSLSAVCRDLFTASNDPLLWRFLYLRDFRDNTVRVQDTDWKELYRKRHIQRKESPKGRFVMLLPSSTHTIPFYPNPLHPRPFPSSRLPPGIIGGEYDQRPTLPYVGDPISSLIPGPGETPSQFPPLRPRFDPVGPLPGPNPILPGRGGPNDRFPFRPSRGRPTDGRLSFM [T22M] |
